Patent US20180155451A1 (published 2018)

Target: T1, FcγRIa extracellular domain with C-terminal His tag (human, UniProt P12314 16-292)
T1 construct: extracellular domain; soluble analyte in Biacore; also called FcgRI; CD64
Experiment: SPR (Biacore), relative FcγRIa binding, GpH7-B3/GpL16-k0 (HoCon Ab) = 100

T1 sequence (P12314 16-292): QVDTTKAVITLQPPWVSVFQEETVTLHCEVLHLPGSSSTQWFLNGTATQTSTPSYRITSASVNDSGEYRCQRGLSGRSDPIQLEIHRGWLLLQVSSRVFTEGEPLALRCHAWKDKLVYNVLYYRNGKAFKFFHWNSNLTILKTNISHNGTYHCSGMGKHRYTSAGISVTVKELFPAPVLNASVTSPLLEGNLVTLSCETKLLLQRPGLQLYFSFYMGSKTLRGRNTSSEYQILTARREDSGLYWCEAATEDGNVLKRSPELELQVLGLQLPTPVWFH

| Binder | Ho/Con_1a |
| --- | --- |
| GpH7-B3 variant K334_07I/GpL16-k0 (antibody, human IgG1, kappa, homodimerized antibody, mutation in both H chains; also called K334_07I Ho Ab) heavy: not shown light: DIVMTQSPLSLPVTPGEPASISCQASESLVHSNRNTYLHWYLQKPGQSPQLLIYKVSNRFSGVPDRFSGSGSGTDFTLKISRVEAEDVGVYYCSQNTHVPPTFGQGTKVEIERTVAAPSVFIFPPSDEQLKSGTASVVCLLNNFYPREAKVQWKVDNALQSGNSQESVTEQDSKDSTYSLSSTLTLSKADYEKHKVYACEVTHQGLSSPVTKSFNRGEC | 107 % of control |
| GpH7-B3 variant P271_18N/GpL16-k0 (antibody, human IgG1, kappa, homodimerized antibody, mutation in both H chains; also called P271_18N Ho Ab) heavy: not shown light: DIVMTQSPLSLPVTPGEPASISCQASESLVHSNRNTYLHWYLQKPGQSPQLLIYKVSNRFSGVPDRFSGSGSGTDFTLKISRVEAEDVGVYYCSQNTHVPPTFGQGTKVEIERTVAAPSVFIFPPSDEQLKSGTASVVCLLNNFYPREAKVQWKVDNALQSGNSQESVTEQDSKDSTYSLSSTLTLSKADYEKHKVYACEVTHQGLSSPVTKSFNRGEC | 103 % of control |
| GpH7-B3 variant S267_14T/GpL16-k0 (antibody, human IgG1, kappa, homodimerized antibody, mutation in both H chains; also called S267_14T Ho Ab) heavy: not shown light: DIVMTQSPLSLPVTPGEPASISCQASESLVHSNRNTYLHWYLQKPGQSPQLLIYKVSNRFSGVPDRFSGSGSGTDFTLKISRVEAEDVGVYYCSQNTHVPPTFGQGTKVEIERTVAAPSVFIFPPSDEQLKSGTASVVCLLNNFYPREAKVQWKVDNALQSGNSQESVTEQDSKDSTYSLSSTLTLSKADYEKHKVYACEVTHQGLSSPVTKSFNRGEC | 107 % of control |
| GpH7-B3 variant Q295_10E/GpL16-k0 (antibody, human IgG1, kappa, homodimerized antibody, mutation in both H chains; also called Q295_10E Ho Ab) heavy: not shown light: DIVMTQSPLSLPVTPGEPASISCQASESLVHSNRNTYLHWYLQKPGQSPQLLIYKVSNRFSGVPDRFSGSGSGTDFTLKISRVEAEDVGVYYCSQNTHVPPTFGQGTKVEIERTVAAPSVFIFPPSDEQLKSGTASVVCLLNNFYPREAKVQWKVDNALQSGNSQESVTEQDSKDSTYSLSSTLTLSKADYEKHKVYACEVTHQGLSSPVTKSFNRGEC | 105 % of control |
| GpH7-B3 variant K334_16H/GpL16-k0 (antibody, human IgG1, kappa, homodimerized antibody, mutation in both H chains; also called K334_16H Ho Ab) heavy: not shown light: DIVMTQSPLSLPVTPGEPASISCQASESLVHSNRNTYLHWYLQKPGQSPQLLIYKVSNRFSGVPDRFSGSGSGTDFTLKISRVEAEDVGVYYCSQNTHVPPTFGQGTKVEIERTVAAPSVFIFPPSDEQLKSGTASVVCLLNNFYPREAKVQWKVDNALQSGNSQESVTEQDSKDSTYSLSSTLTLSKADYEKHKVYACEVTHQGLSSPVTKSFNRGEC | 106 % of control |
| GpH7-B3 variant K334_09D/GpL16-k0 (antibody, human IgG1, kappa, homodimerized antibody, mutation in both H chains; also called K334_09D Ho Ab) heavy: not shown light: DIVMTQSPLSLPVTPGEPASISCQASESLVHSNRNTYLHWYLQKPGQSPQLLIYKVSNRFSGVPDRFSGSGSGTDFTLKISRVEAEDVGVYYCSQNTHVPPTFGQGTKVEIERTVAAPSVFIFPPSDEQLKSGTASVVCLLNNFYPREAKVQWKVDNALQSGNSQESVTEQDSKDSTYSLSSTLTLSKADYEKHKVYACEVTHQGLSSPVTKSFNRGEC | 108 % of control |
| GpH7-B3 variant K334_19Q/GpL16-k0 (antibody, human IgG1, kappa, homodimerized antibody, mutation in both H chains; also called K334_19Q Ho Ab) heavy: not shown light: DIVMTQSPLSLPVTPGEPASISCQASESLVHSNRNTYLHWYLQKPGQSPQLLIYKVSNRFSGVPDRFSGSGSGTDFTLKISRVEAEDVGVYYCSQNTHVPPTFGQGTKVEIERTVAAPSVFIFPPSDEQLKSGTASVVCLLNNFYPREAKVQWKVDNALQSGNSQESVTEQDSKDSTYSLSSTLTLSKADYEKHKVYACEVTHQGLSSPVTKSFNRGEC | 106 % of control |
| GpH7-B3 variant L328_15Y/GpL16-k0 (antibody, human IgG1, kappa, homodimerized antibody, mutation in both H chains; also called L328_15Y Ho Ab) heavy: not shown light: DIVMTQSPLSLPVTPGEPASISCQASESLVHSNRNTYLHWYLQKPGQSPQLLIYKVSNRFSGVPDRFSGSGSGTDFTLKISRVEAEDVGVYYCSQNTHVPPTFGQGTKVEIERTVAAPSVFIFPPSDEQLKSGTASVVCLLNNFYPREAKVQWKVDNALQSGNSQESVTEQDSKDSTYSLSSTLTLSKADYEKHKVYACEVTHQGLSSPVTKSFNRGEC | 104 % of control |
| GpH7-B3 variant S267_06M/GpL16-k0 (antibody, human IgG1, kappa, homodimerized antibody, mutation in both H chains; also called S267_06M Ho Ab) heavy: not shown light: DIVMTQSPLSLPVTPGEPASISCQASESLVHSNRNTYLHWYLQKPGQSPQLLIYKVSNRFSGVPDRFSGSGSGTDFTLKISRVEAEDVGVYYCSQNTHVPPTFGQGTKVEIERTVAAPSVFIFPPSDEQLKSGTASVVCLLNNFYPREAKVQWKVDNALQSGNSQESVTEQDSKDSTYSLSSTLTLSKADYEKHKVYACEVTHQGLSSPVTKSFNRGEC | 106 % of control |
| GpH7-B3 variant P271_01G/GpL16-k0 (antibody, human IgG1, kappa, homodimerized antibody, mutation in both H chains; also called P271_01G Ho Ab) heavy: not shown light: DIVMTQSPLSLPVTPGEPASISCQASESLVHSNRNTYLHWYLQKPGQSPQLLIYKVSNRFSGVPDRFSGSGSGTDFTLKISRVEAEDVGVYYCSQNTHVPPTFGQGTKVEIERTVAAPSVFIFPPSDEQLKSGTASVVCLLNNFYPREAKVQWKVDNALQSGNSQESVTEQDSKDSTYSLSSTLTLSKADYEKHKVYACEVTHQGLSSPVTKSFNRGEC | 106 % of control |
| GpH7-B3 variant K334_18N/GpL16-k0 (antibody, human IgG1, kappa, homodimerized antibody, mutation in both H chains; also called K334_18N Ho Ab) heavy: not shown light: DIVMTQSPLSLPVTPGEPASISCQASESLVHSNRNTYLHWYLQKPGQSPQLLIYKVSNRFSGVPDRFSGSGSGTDFTLKISRVEAEDVGVYYCSQNTHVPPTFGQGTKVEIERTVAAPSVFIFPPSDEQLKSGTASVVCLLNNFYPREAKVQWKVDNALQSGNSQESVTEQDSKDSTYSLSSTLTLSKADYEKHKVYACEVTHQGLSSPVTKSFNRGEC | 108 % of control |
